Results taken from publication PMC2576564 (Frontiers in Molecular Neuroscience, 2008).

Target: the molecule itself
Test: SEC; Superdex 200 16/60 column, after Ni-NTA purification of the secreted protein

B1: extracellular domain of human DPP6-L (residues 117–865) (domain or fragment)
chain: not shown
modifications: glycosylated
  stoichiometry N: 2
